Values of other authors as cited in publication PMC6197867.
pKd: −log10 of the molar value.

Legend:
[1] = molecular target: SMA light chain variable domain VL (Homo sapiens) (UniProt P06312)
[2] = molecular target: LEN light chain variable domain VL (Homo sapiens) (UniProt P06312)

pKd [1] | pKd [2] | Substance
4.40 | – | SMA light chain variable domain VL (from UniProt P06312)
– | 5.00 | LEN light chain variable domain VL (from UniProt P06312)
